{"source": "patent US9579365B2", "about": "“Therapeutic ribonucleases” (Quintessence Biosciences, Inc., priority 2008, dated 2017)", "molecules": {"B1": {"name": "SEQ ID NO:1: native human RNase 1 with amino acid modifications R4C, G38R, R39G, N67R, G89R, S90R, and V118C (protein)", "chain": "KESCAKKFQRQHMDSDSSPSSSSTYCNQMMRRRNMTQRGCKPVNTFVHEPLVDVQNVCFQEKVTCKRGQGNCYKSNSSMHITDCRLTNRRRYPNCAYRTSPKERHIIVACEGSPYVPCHFDASVEDST"}}, "key": {"ribonuclease inhibitor": {"target": "T1, ribonuclease inhibitor (Homo sapiens, UniProt P13489)", "T1 sequence (P13489 1-461)": "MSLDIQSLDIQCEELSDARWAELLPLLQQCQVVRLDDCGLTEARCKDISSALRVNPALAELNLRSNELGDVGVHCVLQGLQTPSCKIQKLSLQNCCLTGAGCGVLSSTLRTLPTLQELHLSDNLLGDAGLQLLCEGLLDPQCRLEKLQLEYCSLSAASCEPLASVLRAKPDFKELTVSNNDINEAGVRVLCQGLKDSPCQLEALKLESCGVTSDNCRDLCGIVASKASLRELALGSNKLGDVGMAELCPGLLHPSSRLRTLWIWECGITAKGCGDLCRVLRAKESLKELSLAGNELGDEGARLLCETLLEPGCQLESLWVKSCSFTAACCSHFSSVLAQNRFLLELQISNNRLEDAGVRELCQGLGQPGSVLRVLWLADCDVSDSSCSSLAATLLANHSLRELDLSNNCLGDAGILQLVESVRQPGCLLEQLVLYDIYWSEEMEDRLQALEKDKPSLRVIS", "experiment": "ribonuclease inhibitor evasion", "format": "binding", "conditions": "compared with QBI-119 and native human RNase 1"}, "RNA": {"system": "RNA", "experiment": "ribonuclease (enzyme) activity compared with native human RNase 1", "format": "biochemical"}}}
{"molecule": "B1", "values": [{"measurement": "ribonuclease inhibitor evasion, comparison in words", "setting": "ribonuclease inhibitor", "value": "inferior to QBI-119 and native human RNase 1"}, {"measurement": "enzyme activity, comparison in words", "setting": "RNA; compared with QBI-119 and native human RNase 1", "value": "inferior to QBI-119 and native human RNase 1"}, {"measurement": "fraction of the ribonuclease activity of native human RNase1", "setting": "RNA; relative to native human RNase 1", "value": "less than 1%"}]}
